These results are taken from patent US10561712B2, “Treatment of cancer and inhibition of metastasis using hemoglobin beta subunit” (UNIVERSITY OF MARYLAND, BALTIMORE, priority 2014, dated 2020).

Series [1] relates to MicroNB cells (human neuroblastoma lung micrometastatic variant, MHH-NB11). The series is described as follows: MTS-based viability assay, MicroNB cells. Type of series: cell-based. Conditions: 10 μg human HBB, 72 hr, FIG. 3D. The source says: (§1) The human neuroblastoma lung micrometastatic (MicroNB) and macrometastatic (MacroNB) variants were generated using a mouse model for human neuroblastoma metastasis (Nevo et al., 2008) from the parental cell lines MHH-NB11 (Pietsch et al., 1988) and SH-SY5Y (Biedler et al., 1978) as detailed here (Edry Botzer et al., 2011), and were maintained in culture as previously described (Nevo et al., 2008). The MicroNB and MacroNB variants were previously designated DisNB and MetNB, respectively (Edry Botzer et al., 2011). Authentication of MicroNB and MacroNB cells was performed by short tandem repeat analysis of DNA using the Type-it Microsatellite PCR Kit (Qiagen, Valencia, Calif.), for the genes published by the American Type Culture Collection (ATCC) (Manassas, Va.). The parental cell line MHH-NB11 was kindly provided by Dr. T. Pietsch (Department of Neuropathology, University of Bonn Medical Center, Bonn, Germany).
(§2) Neuroblastoma cells were seeded (3×10^4 per well) in a 96-well flat-bottomed tissue culture plate. After an incubation of 24 hr, cells were washed and incubated with the relevant factors (detailed in the following sections) diluted in starvation medium (RPMI-1640 containing 5% bovine serum albumin (BSA); Biological Industries, Kibbutz Beit Haemek, Israel; Sigma-Aldrich). Cell viability under normal conditions (starvation medium containing BSA) or after incubation with the relevant factors was monitored after 72 hr using an XTT (XTT cell proliferation kit; Biological Industries) or MTS-based (CellTiter 96® AQueous One Solution Cell Proliferation Assay; Promega) viability assays according to manufacturer instructions. Cells were also counted using the trypan-blue exclusion assay to verify the results obtained by XTT and MTS-based viability assays.
Circular dichroism analysis of human hemoglobin (HB), hemoglobin subunit alpha (HBA) and subunit beta (HBB) indicated a helical structure for all three proteins (FIG. 3C). […] Neuroblastoma cells were seeded (3×10^4 per well) in a 96 well flat-bottomed tissue culture plate. After 24 hr of incubation cells were washed and incubated with human HBB dissolved in starvation medium (RPMI 5% BSA) to the indicated concentrations. Cell viability under normal conditions (starvation medium) or after incubation with human HBB was monitored after an incubation of 72 hr using an MTS-based viability assay (CellTiter 96® AQueous One Solution Cell Proliferation Assay, Promega) according to the manufacturer instructions. Data are means of three independent experiments±SD. Significance was evaluated using Student's t-test for each variant incubated with human HBB compared to incubation with control media (con).

The subject of series [2] is MacroNB cells (human neuroblastoma lung macrometastatic variant). Briefly: MTS-based viability assay, MacroNB cells. Particulars: 10 μg human HBB, 72 hr, FIG. 3D. Format: cell-based.
Source text: as §1
Neuroblastoma cells were seeded (3×10^4 per well) in a 96-well flat-bottomed tissue culture plate. […] Cell viability under normal conditions (starvation medium containing BSA) or after incubation with the relevant factors was monitored after 72 hr using an XTT (XTT cell proliferation kit; Biological Industries) or MTS-based (CellTiter 96® AQueous One Solution Cell Proliferation Assay; Promega) viability assays according to manufacturer instructions. Cells were also counted using the trypan-blue exclusion assay to verify the results obtained by XTT and MTS-based viability assays.
Circular dichroism analysis of human hemoglobin (HB), hemoglobin subunit alpha (HBA) and subunit beta (HBB) indicated a helical structure for all three proteins (FIG. 3C). […] Cell viability under normal conditions (starvation medium) or after incubation with human HBB was monitored after an incubation of 72 hr using an MTS-based viability assay (CellTiter 96® AQueous One Solution Cell Proliferation Assay, Promega) according to the manufacturer instructions. […] Significance was evaluated using Student's t-test for each variant incubated with human HBB compared to incubation with control media (con).
For orientation: Tetrazolium assays rely on reduction of a dye to a coloured formazan, in cell work by metabolically active cells.

For series [3], the system named is HPEC (Human pulmonary endothelial cells). Briefly: Viability of normal cells, HPEC. Format: cell-based. Particulars: normal lung-residing cell line, data not shown. An excerpt: (§3) The influence of HBB on the viability of the normal lung-residing cell lines HPEC (Human pulmonary endothelial cells) and HLMEC (Human lung microvascular endothelial cells) and on the normal kidney cell line 293T and 293A was examined as well.

Series [4] relates to HLMEC (Human lung microvascular endothelial cells). The series is described as follows: Viability of normal cells, HLMEC. Particulars: normal lung-residing cell line, data not shown. Format: cell-based.
Source text: as §3

Series [5] has as its system normal kidney cell line 293T. Briefly: Viability of normal cells, 293T. Conditions: data not shown. Format: cell-based.
Source text: as §3

In series [6] the test system is MacroNB cells. Briefly: Trypan blue exclusion assay, MacroNB cells. Type of series: cell-based, human. Particulars: incubation with HBB, results not shown. The method, then: as §2
The HBB-mediated inhibitory activity was dose dependent (results not shown).

Series [7] concerns ERK1/2 phosphorylation in MacroNB cells. The series is described as follows: ERK1/2 phosphorylation (western blot), MacroNB cells. Conditions: HBB (1 μg) for 48 hr; in reference to total ERK2; FIG. 4A. Format: cell-based, human. The protocol:
Lysates of neuroblastoma cells and of mouse organs were resolved on SDS-PAGE after the addition of Laemmli sample buffer, and transferred onto nitrocellulose membrane. The total amount of protein in the lanes was assessed by Ponceau staining prior to blocking of the membrane. The membrane was blocked at room temperature with 3% BSA (Sigma-Aldrich) diluted in TBS-Tween (TBST) for 1 hr. For detection of the target proteins, membranes were incubated with relevant primary antibodies (see “Antibodies”), then washed 3 times×5 min with TBSTX1 and incubated with suitable HRP-conjugated secondary antibodies (see “Antibodies”). Membranes were washed again 5 times×3 min with TBSTX1. The bands were visualized by chemiluminescence-ECL reactions and autoradiography by exposure to Fuji film. The amount of the relevant protein in the lanes was estimated by densitometry using Scion Image software (Scion, Frederick, Md., USA).
Neuroblastoma cells (5×10^6) were plated and after 24 hr the growth medium was replaced with starvation medium (RPMI 0.5% FCS) for 24 hr. […] ERK1/2 phosphorylation was calculated in reference to total ERK2 protein, p38 and TAK1 phosphorylation was calculated in reference to total p38 and TAK1, respectively, as measured by densitometry using Scion Image software (Scion). […]

Series [8] relates to MacroNB cells. Briefly: Cell cycle analysis by flow cytometry, MacroNB cells. Particulars: HBB (1 μg) for 48 hr. Format: cell-based, human. The protocol: Neuroblastoma cells (5×10^5) were plated and after 24 hr, cells were incubated for 48 hr with HBB diluted in starvation medium (RPMI 5% BSA) to a concentration of 10 μg/ml. Neuroblastoma cells incubated with starvation medium containing BSA alone served as control. Cells were pelleted, washed and resuspended in 0.5 ml PBSX1, containing 0.05 ml propidium iodide (PI) (P-4170, Sigma) (50 μg/ml), and 0.05 ml Triton X-100 (Sigma-Aldrich). Flow cytometry analysis was performed using Becton Dickinson FACSort and CellQuest software (Becton Dickinson, Mountain View, Calif.).
The cells were also subjected to measurement of cellular DNA content and cell cycle analysis using flow cytometry. Incubation with human HBB elevated the amount of MicroNB and MacroNB cells in the sub GO phase, by 18% and 11%, respectively (data not shown).
For orientation: Flow cytometry measures light scatter and fluorescence of single cells or particles in a stream.

Regarding “HBB: beta subunit of human hemoglobin, 147 amino acids, SEQ ID NO:2, HPLC-purified from native human hemoglobin”, the “decrease in viability of MicroNB cells” value in series [1] is given as 52%. The “decrease in viability of MacroNB cells” value in series [2] is given as 29%. In addition, the “influence on the viability of normal cells” value in series [3], in series [4] and in series [5] was “did not influence the viability” each time. Besides, the “non-viable MacroNB cells following incubation” value in the series with MacroNB cells [6] was determined as 8%. For the same substance, the “ERK phosphorylation in MacroNB cells” value in series [7] is given as “decreased”. For the same substance, the “elevation of the amount of MacroNB cells in G0-G1 phase” value in the series with MacroNB cells [8] (FIG. 4B) is recorded as 23%. The “elevation of the amount of MacroNB cells in the sub G0 phase” value in the series with MacroNB cells [8] (data not shown) was 11%.
